The target in assay [1] is EA.hy926 cell surface associated TFPI (human) (UniProt P10646).
The target is the same in assay [2]. Put plainly: flow cytometry on EA.hy926 cells, APC anti-human IgG secondary, median fluorescence intensity. On the technique in general: Flow cytometry measures light scatter and fluorescence of single cells or particles in a stream.
For assay [3] the target is unchanged. The source holds these as a separate data set.

Where two headings read alike, the source gives them in different places.

B1: Fab 0088-Fab 0089 conjugate 9002 (bispecific antibody)
heavy 1: EVQLVESGGGLVKPGGSLRLSCAASGFTFSNYAMSWVRQTPEKRLEWVATISRSGSYSYFPDSVQGRFTISRDNAKNSLYLQMNSLRAEDTAVYYCARLGGYDEGDAMDSWGQGTTVTVSSASTKGPSVFPLAPCSRSTSESTAALGCLVKDYFPEPVTVSWNSGALTSGVHTFPAVLQSSGLYSLSSVVTVPSSSLGTKTYTCNVDHKPSNTKVDKRVESKYGPPC
light 1: DIVMTQTPLSLSVTPGQPASISCKSSQSLLESDGKTYLNWYLQKPGQSPQLLIYLVSILDSGVPDRFSGSGSGTDFTLKISRVEAEDVGVYYCLQATHFPQTFGGGTKVEIKRTVAAPSVFIFPPSDEQLKSGTASVVCLLNNFYPREAKVQWKVDNALQSGNSQESVTEQDSKDSTYSLSSTLTLSKADYEKHKVYACEVTHQGLSSPVTKSFNRGEC
heavy 2: QVQLQQSGAELVKPGASVKLSCKASGYTFISYYMYWVKQRPGQGLEWIGEINPSNGDTNLNEKFKSKATLTVDKSSSTVYMQLSSLTSEDSAVYYCTRWDRFDGFVYWGQGTLVTVSAASTKGPSVFPLAPCSRSTSESTAALGCLVKDYFPEPVTVSWNSGALTSGVHTFPAVLQSSGLYSLSSVVTVPSSSLGTKTYTCNVDHKPSNTKVDKRVESKYGPPC
light 2: ETTVTQSPASLSMAIGGKVTIRCIISTNIDDDINWYQQKPGEPPKLLISEGNTLRPGVPSRFSSSGYGTDFVFTIENMLSEDVADYYCLQSDDLPYTFGGGTKLEIKRTVAAPSVFIFPPSDEQLKSGTASVVCLLNNFYPREAKVQWKVDNALQSGNSQESVTEQDSKDSTYSLSSTLTLSKADYEKHKVYACEVTHQGLSSPVTKSFNRGEC
modifications: C-terminal cysteine coupled through the bis-maleimide linker to the Fab 0088 heavy chain; C-terminal cysteine coupled through 1,16-N,N'-bis(maleimido)-4,13-diaza-7,10-dioxa-3,14-dioxohexadecane to the C-terminal cysteine of the Fab 0089 heavy chain
The term EC50 (read off the curve) denotes the midpoint of the concentration-response curve. In general, EC50 refers to the concentration that produces a half-maximal response. Read a low EC50 as greater potency. Regarding B1, the EC50 (read off the curve) in assay [1] worked out at 2 nM. In assay [2], this molecule showed an EC50 of 0.33 nM.

B2: Fab 0094-Fab 0089 conjugate 9004 (bispecific antibody)
heavy 1: EVQLVESGGGLVKPGGSLRLSCAASGFTFSNYAMSWVRQAPGKGLEWVSTISRSGSYSYYPDSVKGRFTISRDNAKNSLYLQMNSLRAEDTAVYYCARLGGYDEGDAMDSWGQGTTVTVSSASTKGPSVFPLAPCSRSTSESTAALGCLVKDYFPEPVTVSWNSGALTSGVHTFPAVLQSSGLYSLSSVVTVPSSSLGTKTYTCNVDHKPSNTKVDKRVESKYGPPC
light 1: DIVMTQTPLSLSVTPGQPASISCKSSQSLLESDGKTYLNWYLQKPGQSPQLLIYLVSILDSGVPDRFSGSGSGTDFTLKISRVEAEDVGVYYCLQATHFPQTFGGGTKVEIKRTVAAPSVFIFPPSDEQLKSGTASVVCLLNNFYPREAKVQWKVDNALQSGNSQESVTEQDSKDSTYSLSSTLTLSKADYEKHKVYACEVTHQGLSSPVTKSFNRGEC
heavy 2: QVQLQQSGAELVKPGASVKLSCKASGYTFISYYMYWVKQRPGQGLEWIGEINPSNGDTNLNEKFKSKATLTVDKSSSTVYMQLSSLTSEDSAVYYCTRWDRFDGFVYWGQGTLVTVSAASTKGPSVFPLAPCSRSTSESTAALGCLVKDYFPEPVTVSWNSGALTSGVHTFPAVLQSSGLYSLSSVVTVPSSSLGTKTYTCNVDHKPSNTKVDKRVESKYGPPC
light 2: ETTVTQSPASLSMAIGGKVTIRCIISTNIDDDINWYQQKPGEPPKLLISEGNTLRPGVPSRFSSSGYGTDFVFTIENMLSEDVADYYCLQSDDLPYTFGGGTKLEIKRTVAAPSVFIFPPSDEQLKSGTASVVCLLNNFYPREAKVQWKVDNALQSGNSQESVTEQDSKDSTYSLSSTLTLSKADYEKHKVYACEVTHQGLSSPVTKSFNRGEC
modifications: C-terminal cysteine coupled through the bis-maleimide linker to the Fab 0094 heavy chain; C-terminal cysteine coupled through 1,16-N,N'-bis(maleimido)-4,13-diaza-7,10-dioxa-3,14-dioxohexadecane to the C-terminal cysteine of the Fab 0089 heavy chain
Regarding B2, the EC50 in assay [2] came to 6.9 nM.

B3: mAb 2021 (antibody, human IgG4 S228P, kappa, V domains shown)
VH: EVQLVESGGGLVKPGGSLRLSCAASGFTFSNYAMSWVRQTPEKRLEWVATISRSGSYSYFPDSVQGRFTISRDNAKNSLYLQMNSLRAEDTAVYYCARLGGYDEGDAMDSWGQGTTVTVSS
VL: DIVMTQTPLSLSVTPGQPASISCKSSQSLLESDGKTYLNWYLQKPGQSPQLLIYLVSILDSGVPDRFSGSGSGTDFTLKISRVEAEDVGVYYCLQATHFPQTFGGGTKVEIKR
In assay [3], B3 returned an EC50 (read off the curve) of 1 nM. Further, the EC50 in assay [2] was determined as 0.11 nM.

B4: Fab 0088 (Fab fragment of mAb 2021) (Fab, V domains shown)
VH: EVQLVESGGGLVKPGGSLRLSCAASGFTFSNYAMSWVRQTPEKRLEWVATISRSGSYSYFPDSVQGRFTISRDNAKNSLYLQMNSLRAEDTAVYYCARLGGYDEGDAMDSWGQGTTVTVSS
VL: DIVMTQTPLSLSVTPGQPASISCKSSQSLLESDGKTYLNWYLQKPGQSPQLLIYLVSILDSGVPDRFSGSGSGTDFTLKISRVEAEDVGVYYCLQATHFPQTFGGGTKVEIKR
In turn, B4 registered an EC50 in assay [2] of 0.31 nM.

B5: Fab 0313 (Fab fragment of mAb 2000) (Fab, V domains shown)
VH: EVQLVESGGGLVKPGGSLRLSCAASGFTFSNYAMSWVRQAPGKGLEWVSTISRSGSYSYYADSVKGRFTISRDNAKNSLYLQMNSLRAEDTAVYYCARLGGYDEGDAMDSWGQGTTVTVSS
VL: DIVMTQTPLSLSVTPGQPASISCKSSQSLLESDGKTYLNWYLQKPGQSPQLLIYLVSILDSGVPDRFSGSGSGTDFTLKISRVEAEDVGVYYCLQATHFPQTFGGGTKVEIKR
In assay [2], B5 had an EC50 of 25.9 nM.

B6: Fab 0094 (Fab fragment of mAb 2007) (Fab, V domains shown)
VH: EVQLVESGGGLVKPGGSLRLSCAASGFTFSNYAMSWVRQAPGKGLEWVSTISRSGSYSYYPDSVKGRFTISRDNAKNSLYLQMNSLRAEDTAVYYCARLGGYDEGDAMDSWGQGTTVTVSS
VL: DIVMTQTPLSLSVTPGQPASISCKSSQSLLESDGKTYLNWYLQKPGQSPQLLIYLVSILDSGVPDRFSGSGSGTDFTLKISRVEAEDVGVYYCLQATHFPQTFGGGTKVEIKR
In assay [2], B6 showed an EC50 of 3.8 nM.
